By Kd is commonly meant a measure of binding affinity in units of concentration. Higher therefore signals lower affinity. The term koff denotes the rate constant with which the complex falls apart. A high value points to fast dissociation. In general, kon refers to a measure of how fast the partners come together.

B1: COVID19_R01_D02 (scFv, V domains shown)
VH: EVQLVESGGGLVQPGGSLRLSCAASGFTFDDYAMHWVRQAPGKGLEWVAIIYEGGSPHYADSVKGRFTISRDNSKNTLYLQMNSLRAEDTAVYYCARDRSGYLDYWGQGTLVTVSS
VL: EIVMTQSPATLSVSPGERATLSCRASQSVSNNLAWYQQKPGQAPRLLIYDASTRATGIPARFSGSGSGTEFTLTISSLQSEDFAVYYCQQYNNWPPTFGGGTKVEIKR
B2: COVID19_P04_D08 (scFv, V domains shown)
VH: EVQLVESGGGLVQPGGSLRLSCAASGFTFTNYAMTWVRQAPGKGLEWVSTMSNIGGDTYYADSVKGRFTISRDNSKNTLYLQMNSLRAEDTAVYYCARDRRVYLDYWGQGTLVTVSS
VL: DIQMTQSPSSLSASVGDRVTITCRASQSISSYLNWYQQKPGKAPKLLIYAASSLQSGVPSRFSGSGSGTEFTLTISSLQSEDFAVYYCQQYGSSPLTFGGGTKVEIKR
B3: COVID19_P04_E10 (scFv, V domains shown)
VH: EVQLVESGGGLVQPGGSLRLSCAASGFSFSSYGMSWVRQAPGKGLEWVSAMNRDGSYIYYADSVKGRFTISRDNSKNTLYLQMNSLRAEDTAVYYCARDRSYYVGYWGQGTLVTVSS
VL: B1 VL with S30R, N31S, D50G, Y91R
B4: COVID19_P04_B10 (scFv, V domains shown)
VH: EVQLVESGGGLVQPGGSLRLSCAASGFRFSDAAIHWVRQAPGKGLEWVSAISGSGGSTYYADSVKGRFTISRDNSKNTLYLQMNSLRAEDTAVYYCARDRSYGIDYWGQGTLVTVSS
VL: not shown
B5: COVID19_P04_B03 (scFv, V domains shown)
VH: B4 VH with R28T, D31N, A32H, A33Y, I34M, H35S, G103Y, I104L
VL: EIVMTQSPATLSVSPGERATLSCRASQSIGTYLSWYQQKPGQAPRLLIYGASTRATGIPARFSGSGSGTEFTLTISSLQSEDFAVYYCQQSLSLPVTFGGGTKVEIKR
B6: COVID19_P04_G03 (scFv, V domains shown)
VH: EVQLVESGGGLVQPGGSLRLSCAASGFTVSSNYMNWVRQAPGKGLEWVSVVYPGGSTYYADSVKGRFTISRDNSKNTLYLQMNSLRAEDTAVYYCARDRSYYLDYWGQGTLVTVSS
VL: not shown
B7: COVID19_P04_G05 (scFv, V domains shown)
VH: B6 VH with F27L, T28S, S30T, N35S, V51I, Y58F
VL: not shown
B8: COVID19_P04_B09 (scFv, V domains shown)
VH: EVQLVESGGGLVQPGGSLRLSCAASGFTFSNSDMNWVRQAPGKGLEWVSAISGTGDTTEYADSVKGRFTISRDNSKNTLYLQMNSLRAEDTAVYYCARDRSLMLDYWGQGTLVTVSS
VL: B1 VL with S30R, N31S, D50G, Y91R
B9: COVID19_R01_C08 (scFv, V domains shown)
VH: B3 VH
VL: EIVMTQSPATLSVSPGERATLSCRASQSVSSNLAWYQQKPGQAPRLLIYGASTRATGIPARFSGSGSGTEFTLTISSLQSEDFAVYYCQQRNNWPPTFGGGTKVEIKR
notes: also called COVID19_R01_CO8
B10: COVID19_R01_A04 (scFv, V domains shown)
VH: EVQLVESGGGLVQPGGSLRLSCAASGFTFSDHYMSWVRQAPGKGLEWVSAISTSGDSTFYADSVKGRFTISRDNSKNTLYLQMNNLRAEDTAVYYCARDRSYYLDYWGQGTLVTVSS
VL: EIVMTQSPATLSVSPGERATLSCRASQSVRSNLAWYQQKPGQAPRLLIYGASTRATGIPARFSGSGSGTEFTLTISSLQSEDFAVYYCQQFGTSPPGLSFGGGTKVEIKR
B11: COVID19_R01_B10 (scFv, V domains shown)
VH: B6 VH with N35S, V51I, Y58F
VL: EIVMTQSPATLSVSPGERATLSCRASQSVSSSYLAWYQQKPGQAPRLLIYGASTRATGIPARFSGSGSGTEFTLTISSLQSEDFAVYYCQQASSTPLTFGGGTKVEIKR
B12: COVID19_R01_B01 (scFv, V domains shown)
VH: EVQLVESGGGLVQPGGSLRLSCAASGFTFASHAMSWVRQAPGKGLEWVSGISSDGSITTYADSVKGRFTISRDNSKNTLYLQMNSLRAEDTAVYYCARDRGWYLDYWGQGTLVTVSS
VL: not shown

Numbering of substitutions follows the chain as printed. Bounds are passed on as bounds.

For the first experiment, the target named is SARS-CoV-2 spike protein (on pseudovirus / virus in the neutralisation assays) (SARS-CoV-2, UniProt P0DTC2 14-1273). Description: cell-based or functional assay.
With B1, the “IC50 [µg/mL] plaque” value was under 3 µg/mL and the “IC50 [µg/mL] pseudotyped lenti neutralization” value was determined as 0.62 µg/mL.

In another experiment the target is SARS-CoV-1 Receptor Binding Domain (RBD) protein (SARS-CoV-1, UniProt P59594 306-527). Description: SPR (Carterra LSA), scFv captured via anti-V5, RBD as analyte.
Regarding B2, the binding result was “no binding (tested: 300 nM (highest analyte concentration))”.

As for B3, the binding result is “no binding (tested: 300 nM (highest analyte concentration))”.

Turning to B4, the binding result is “no binding (tested: 300 nM (highest analyte concentration))”.

Turning to B5, the binding result is given as “no binding (tested: 300 nM (highest analyte concentration))”.

Regarding B6, the binding result is reported as “no binding (tested: 300 nM (highest analyte concentration))”.

On to B7, for which the binding result is “no binding (tested: 300 nM (highest analyte concentration))”.

B8: the binding result was “no binding (tested: 300 nM (highest analyte concentration))”.

The target in the next experiment is MERS Receptor Binding Domain (RBD) protein (MERS coronavirus, UniProt K9N5Q8 367-606). The description is as above.
Consider B2, for which the binding result is listed as “no binding (tested: 300 nM (highest analyte concentration))”.

Turning to B3, the binding result is on record as “no binding (tested: 300 nM (highest analyte concentration))”.

For the molecule B4, the binding result is recorded as “no binding (tested: 300 nM (highest analyte concentration))”.

On to B5, for which the binding result is listed as “no binding (tested: 300 nM (highest analyte concentration))”.

As to B6, the binding result is recorded as “no binding (tested: 300 nM (highest analyte concentration))”.

As to B7, the binding result is reported as “no binding (tested: 300 nM (highest analyte concentration))”.

B8: the binding result is on record as “no binding (tested: 300 nM (highest analyte concentration))”.

In a further experiment the target is SARS-Cov-2 Receptor Binding Domain (RBD) protein (SARS-CoV-2, UniProt P0DTC2 319-541). Description: SPR (Carterra LSA), scFv captured via anti-V5, RBD as analyte, 1:1 fit.
The molecule B2 showed a Kd of 40.7 nM, a koff of 0.0113 s⁻¹ and a kon of 279000 M⁻¹ s⁻¹.

As to B9, binding was characterised by a dissociation constant (Kd) of 49.5 nM, the koff worked out at 0.00379 s⁻¹ and the association rate constant (kon) turned out to be 76600 M⁻¹ s⁻¹.

B3: binding was put at a Kd of 4.4 nM, the koff was 0.00053 s⁻¹ and the kon is 120000 M⁻¹ s⁻¹.

For the molecule B10, the Kd was 10.9 nM, the koff was found to be 0.012 s⁻¹ and the kon is 1.1e+06 M⁻¹ s⁻¹.

On to B4, for which the Kd turned out to be 2.5 nM, the koff is 0.0005 s⁻¹ and the kon was 200000 M⁻¹ s⁻¹.

On to B5, for which the Kd amounted to 19.7 nM, the koff came out at 0.0141 s⁻¹ and the kon was determined as 716000 M⁻¹ s⁻¹.

Molecule B6 yielded a Kd of 7.1 nM, a koff of 0.00045 s⁻¹ and a kon of 63000 M⁻¹ s⁻¹.

With B11, the Kd was found to be 30.4 nM, the koff worked out at 0.00294 s⁻¹ and the kon is 96900 M⁻¹ s⁻¹.

In turn, B7 yielded a Kd of 0.72 nM, a koff of 5.7e-05 s⁻¹ and a kon of 79000 M⁻¹ s⁻¹.

Turning to B12, the Kd was 12.5 nM, the off-rate (koff) turned out to be 0.00055 s⁻¹ and the kon was determined as 44000 M⁻¹ s⁻¹.

The molecule B1 registered a Kd of 2.8 nM, a koff of 0.00058 s⁻¹ and a kon of 210000 M⁻¹ s⁻¹.

Consider B8, for which the affinity, expressed as Kd, was 1.4 nM; the off-rate constant (koff) is 0.00032 s⁻¹; the kon came to 230000 M⁻¹ s⁻¹.

The values are drawn from patent US11021531 (CENTIVAX, dated 2021).
